In assay [1] the target is T1, biotinylated murine gp130_(P496L) (D1-D6) with C-terminal biotin acceptor peptide and hexa-histidine tag (murine, UniProt Q00560 23-617, P496L, biotin on the C-terminal biotin acceptor peptide (in vitro, BirA)). The assay can be described thus: SPR. In general terms: In SPR one partner is held on a chip, and binding of the other changes the refractive index at the surface.

For assay [2], the target named is T2, biotinylated murine wildtype gp130 (D1-D6) with C-terminal biotin acceptor peptide and hexa-histidine tag (murine, UniProt Q00560 23-617, biotin on the C-terminal biotin acceptor peptide (in vitro, BirA)).
T2 chain: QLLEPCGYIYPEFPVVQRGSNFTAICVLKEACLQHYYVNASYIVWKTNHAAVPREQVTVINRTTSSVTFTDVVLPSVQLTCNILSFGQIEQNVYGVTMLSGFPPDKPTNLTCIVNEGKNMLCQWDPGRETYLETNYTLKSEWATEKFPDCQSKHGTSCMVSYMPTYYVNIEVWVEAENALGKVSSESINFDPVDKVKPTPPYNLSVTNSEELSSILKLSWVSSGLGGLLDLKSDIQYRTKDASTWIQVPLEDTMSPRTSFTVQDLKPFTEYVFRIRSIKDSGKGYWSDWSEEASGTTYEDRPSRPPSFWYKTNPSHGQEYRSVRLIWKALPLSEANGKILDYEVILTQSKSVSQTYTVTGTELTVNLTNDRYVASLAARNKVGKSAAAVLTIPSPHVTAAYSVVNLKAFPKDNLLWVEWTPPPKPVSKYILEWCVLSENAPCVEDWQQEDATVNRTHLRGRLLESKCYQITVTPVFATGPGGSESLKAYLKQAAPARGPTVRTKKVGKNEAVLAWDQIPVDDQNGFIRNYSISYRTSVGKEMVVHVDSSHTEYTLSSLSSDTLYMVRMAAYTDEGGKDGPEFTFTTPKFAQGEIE
The assay can be described thus: SPR.

For assay [3], the target named is T1, biotinylated murine gp130_(P496L) …. The assay is described as follows: SPR; kinetic fit.
Assay [4] has as its target T2, biotinylated murine wildtype gp130 …. The assay is described as follows: SPR; kinetic fit.
In assay [5] the target is T1, biotinylated murine gp130_(P496L) …. The assay is described as follows: SPR; equilibrium fit.
Assay [6] concerns the target T2, biotinylated murine wildtype gp130 …. The assay can be described thus: SPR; equilibrium fit.

B1: HypIL-11 (human IL-11 fused by a short linker to domains D2 and D3 of IL-11Rα, single chain) (other)
chain: PPARPVVSCQAADYENFSCTWSPSQISGLPTRYLTSYRKKTVLGADSQRRSPSTGPWPCPQDPLGAARCVVHGAEFWSQYRINVTEVNPLGASTRLLDVSLQSILRPDPPQGLRVESVPGYPRRLRASWTYPASWPCQPHFLLKFRLQYRPAQHPAWSTVEPAGLEEVITDAVAGLPHAVRVSARDFLDAGTWSTWSPEAWGTPSTPGPPPGPPRVSPDPRAELDSTVLLTRSLLADTRQLAAQLRDKFPADGDHNLDSLPTLAMSAGALGALQLPGVLTRLRADLLSYLRHVQWLRRAGGSSLKTLEPELGTLQARLDRLLRRLQLLMSRLALPQPPPDPPAPPLAPPSSAWGGIRAAHAILGGLHLTLDWAVRGLLLLKTRL
Broadly, the koff is a measure of how fast the partners let go of each other. A higher koff goes with fast dissociation. The Kd is the constant that tells how readily two partners part at equilibrium. A higher Kd goes with a looser complex. For the molecule B1, the koff in assay [1] came out at 0.0027 s⁻¹; in assay [2], 0.0023 s⁻¹. Besides, the Kd in assay [3] turned out to be 1.8 nM; in assay [4], 1.45 nM; in assay [5], 11 nM; in assay [6], 8.5 nM.

The record behind these values is paper PMC10920896 (2024).
